# Source: PMC10328853, “Design and preclinical evaluation of a novel apelin-based PET radiotracer targeting APJ receptor for molecular imaging of angiogenesis” (Angiogenesis, 2023)
# Columns and labels:
# [1] = tested on: hindlimb ischemia mouse model; assay: Longitudinal PET/CT follow-up in the hindlimb ischemia mouse model; assay type: in vivo; details: HLI mice, day 7, PET 1 h after i.v. injection, n = 8
# Excerpt: Unilateral hindlimb ischemia (HLI) was induced on 9-week-old female Swiss mice (Janvier Labs, n = 8) after femoral artery excision under 2% isoflurane anesthesia as previously described. LASER Doppler perfusion imaging (Perimed, Craponne, France) was used to assess revascularization from day 0 to day 21 after surgery. Perfusion measurements were expressed as an ischemic-to-contralateral ratio of hind limb blood flow normalized to the day of surgery. […] Small animal PET imaging acquisition lasted 20 min (numbers of iterations: 4, coincidence: 1–3) using a field of view (FOV) of 10 cm. CT parameters were fixed at 35 kV voltage, 300 ms exposure at medium zoom, acquired by semi-circular method on the same FOV as PET. CT attenuation-corrected reconstruction was performed using Nucline software (Mediso, Budapest, Hungary). Tissue uptake values were expressed as a target-to-background (Matrigel-to-muscle) or as an ischemic-to-contralateral hindlimb PET signal ratio.
# in vivo [2] = details: Pietrain, pig, 85 MBq, total radioactivity
# Protocol: Attenuation-corrected images were reconstructed using ADW software v4.6 (GE Healthcare, Chicago, Illinois, USA), and PET signal quantifications were performed on CT-based manually drawn volumes of interest (VOIs) using VivoQuant software v.3.5 (InVicro, Boston, MA, USA). Results were decay corrected and expressed as mean ± sd percentage of the injected dose (%ID).
# [3] = tested on: Matrigel plug mouse model; assay: Longitudinal PET/CT follow-up in the Matrigel plug mouse model; assay type: in vivo; details: Matrigel mice, n = 7
# Protocol: Matrigel plugs were established by subcutaneous dorsal injections of 300 µL Matrigel (Dutscher, Bernolsheim, France) supplemented with 10% fetal bovine serum, to 9-week-old male Swiss mice (Janvier Labs, Le Genest-Saint-Isle, France, n = 12) under 2% isoflurane anesthesia. Seven Matrigel mice underwent small animal PET follow-up, and five others were involved in the in vivo specificity study as described below. […] Small animal PET imaging acquisition lasted 20 min (numbers of iterations: 4, coincidence: 1–3) using a field of view (FOV) of 10 cm. CT parameters were fixed at 35 kV voltage, 300 ms exposure at medium zoom, acquired by semi-circular method on the same FOV as PET. CT attenuation-corrected reconstruction was performed using Nucline software (Mediso, Budapest, Hungary). Tissue uptake values were expressed as a target-to-background (Matrigel-to-muscle) or as an ischemic-to-contralateral hindlimb PET signal ratio.
# APJ in Matrigel plug = biological target: T1, APJ in Matrigel plug (Mus musculus, UniProt Q9WV08); assay: In vivo specificity of PET signal, Matrigel plug mice, baseline or APJ-blocking; details: PET 1 h p.i., n = 5
# T1 construct: probably related to avascular and acellular contents of Matrigel; from tissue; host or cells: Subcutaneous Matrigel plug in male Swiss mice
# T1 sequence (Q9WV08 1-377): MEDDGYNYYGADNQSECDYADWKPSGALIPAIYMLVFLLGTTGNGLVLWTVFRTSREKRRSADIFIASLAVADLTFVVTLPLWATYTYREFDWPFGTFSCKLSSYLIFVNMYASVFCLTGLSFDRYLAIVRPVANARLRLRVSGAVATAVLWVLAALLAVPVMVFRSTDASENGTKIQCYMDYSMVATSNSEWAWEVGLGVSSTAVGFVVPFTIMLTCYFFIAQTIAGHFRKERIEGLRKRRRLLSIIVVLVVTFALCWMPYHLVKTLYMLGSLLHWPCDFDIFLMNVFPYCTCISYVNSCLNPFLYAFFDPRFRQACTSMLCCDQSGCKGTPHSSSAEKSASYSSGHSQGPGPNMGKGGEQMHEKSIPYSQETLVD
# Protocol: Matrigel plugs were established by subcutaneous dorsal injections of 300 µL Matrigel (Dutscher, Bernolsheim, France) supplemented with 10% fetal bovine serum, to 9-week-old male Swiss mice (Janvier Labs, Le Genest-Saint-Isle, France, n = 12) under 2% isoflurane anesthesia. Seven Matrigel mice underwent small animal PET follow-up, and five others were involved in the in vivo specificity study as described below.
# (§1) Small animal PET imaging acquisition lasted 20 min (number of iterations: 4, coincidence: 1–3) using a field of view (FOV) of 10 cm. CT parameters were fixed at 35 kV voltage, 300 ms exposure at medium zoom, acquired by semi-circular method on the same FOV as PET. CT attenuation-corrected reconstruction was performed using Nucline software (Mediso, Budapest, Hungary). […] Tissue uptake values were expressed as a mean target-to-background PET signal ratio (TBRmean) with background represented by the left gastrocnemius muscle.
# APJ on T84 cells = biological target: T2, APJ on T84 cells (Homo sapiens, UniProt P35414); assay: In vitro specificity of [68Ga]Ga-AP747 by autoradiography, with and without excess apelin-F13A; assay type: cell-based; details: 1 h incubation, n = 6
# T2 construct: endogenous in cells; host or cells: T84 human colon adenocarcinoma cells
# T2 sequence (P35414 1-380): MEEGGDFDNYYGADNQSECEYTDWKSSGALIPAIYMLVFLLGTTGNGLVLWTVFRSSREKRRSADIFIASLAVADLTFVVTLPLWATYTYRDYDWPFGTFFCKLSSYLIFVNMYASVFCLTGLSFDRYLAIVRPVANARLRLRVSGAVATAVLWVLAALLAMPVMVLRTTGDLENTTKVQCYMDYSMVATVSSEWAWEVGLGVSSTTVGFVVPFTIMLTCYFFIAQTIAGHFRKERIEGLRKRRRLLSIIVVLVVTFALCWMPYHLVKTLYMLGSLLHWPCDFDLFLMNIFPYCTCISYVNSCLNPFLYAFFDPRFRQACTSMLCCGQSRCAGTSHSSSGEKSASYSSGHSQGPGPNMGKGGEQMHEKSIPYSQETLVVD
# Protocol: T84 cells were seeded at a 1.10^6 cells per well density in 24-well plates (Corning, Corning, USA) and incubated overnight with a complete medium. […] After a 1 h incubation, the medium was removed and the cells were washed 3 times with PBS (Eurobio-scientific, Les Ulis, France) and their viability assessed.
# APJ in T84 tumors = biological target: T3, APJ in T84 tumors (Homo sapiens, UniProt P35414); assay: In vivo specificity of PET signal, T84 colon adenocarcinoma xenograft mice, baseline or APJ-blocking; set-up: species or system mouse; details: PET 1 h p.i., n = 3
# T3 construct: Mice bearing ectopic colon adenocarcinoma xenograft; from tissue; host or cells: T84 xenograft tumour in Swiss nude mice
# T3 sequence (P35414 1-380): T2 sequence (P35414 1-380)
# Protocol: Human colon adenocarcinoma xenografts were established by subcutaneous dorsal injections of 1.10^6 T84 cells (100 µL, PBS) to 6-week-old male Swiss nude mice (Charles River, Saint-Germain-Nuelles, France, n = 3) under 2% isoflurane anesthesia.
# as §1
# in vivo [4] = details: male, Swiss, mouse, iv, 4.45 MBq, total radioactivity
# Protocol: The quantified PET signal in organs was presented as mean ± SD percentage of the decay-corrected injected dose (%ID). Acquisition of small animal dynamic PET/CT was performed for 120 min on a NanoScan PET/CT camera (Mediso, Budapest, Hungary) under 2% isoflurane in medical air anesthesia [PET parameters: numbers of iterations: 4, coincidence: 1–3, field of view (FOV): 10 cm]. CT parameters were fixed at 35 kV voltage, 300 ms exposure at medium zoom, acquired by semi-circular method on the same FOV as PET. CT attenuation-corrected reconstruction was performed using Nucline software (Mediso, Budapest, Hungary) on the following time frames: 0–5 min, 6–10 min, 11–15 min, 16–20 min, 21–25 min, 26–30 min, 31–45 min, 46–60 min, 61–75 min, 76–90 min, 91–105 min, and 106–120 min.
# [5] = mouse, in vivo, iv
# Protocol: Blood was collected at 2, 5, 10, 15, 20, 30, 45, 60, 75, 90, 105, and 120 min post-injection and gamma counted with decay correction. Plasmatic half-life (t1/2) was estimated by nonlinear regression. At two hours post-injection, mice were euthanatized and the main organs (heart, liver, lungs, muscle, brain, spleen, intestines, bone, pancreas, and kidneys) were collected, washed in PBS, weighted, and gamma counted. Results were decay corrected and expressed as percentage of injected dose corrected by organ weight (%ID/g).
# APJ = details: cited from earlier work
# Excerpt: In this context, we identified the apelin/APJ system as a relevant molecular target for angiogenesis imaging because of its implication in blood vessels formation by sprouting. The APJ receptor also known as APLNR and AGTRL1 is a class A G-protein-coupled receptor. Apelin is an endogenous ligand of this receptor. The Apelin/APJ system is described as implicated in different pathologies. High levels of APJ mRNA and protein are found respectively in endothelial cells through vessel formation and on sprouting vessels of hypoxic tissues and tumor-associated endothel ...
# [6] = 100X apelin-F13A (100 µg) i.v. 30 min before tracer
compound,measurement,setting,value
"CSCC[C@H](NC(=O)[C@@H]1CCCN1C(=O)CNC(=O)[C@H](CCCCNC(=O)CCC(C(=O)O)N1CCN(CC(=O)O)CCN(CC(=O)O)CC1)NC(=O)[C@H](Cc1c[nH]cn1)NC(=O)[C@H](CO)NC(=O)[C@H](CC(C)C)NC(=O)[C@H](CCCNC(=N)N)NC(=O)[C@@H]1CCCN1C(=O)[C@H](CCCNC(=N)N)NC(=O)[C@H](CCC(N)=O)NC(=O)CCC(C(=O)O)N1CCN(CC(=O)O)CCN(CC(=O)O)CC1)C(=O)N1CCC[C@H]1C(=O)N[C@@H](C)C(=O)O (some centres unmarked) [[^68Ga]Ga-AP747, metal not drawn]",i/c (ischemic-to-contralateral hindlimb) PET signal ratio,[1],5.49 ± 5.97
same,tissue uptake dose at 2 h,in vivo [2]; PET signal in bladder,39.4 ± 8.54 %ID
same,tissue uptake dose at 2 h,in vivo [2]; PET signal in brain,0.037 ± 0.015 %ID
same,tissue uptake dose at 2 h,in vivo [2]; PET signal in heart,0.58 ± 0.16 %ID
same,tissue uptake dose at 2 h,in vivo [2]; PET signal in kidneys,3.98 ± 0.79 %ID
same,tissue uptake dose at 2 h,in vivo [2]; PET signal in liver,1.42 ± 0.34 %ID
same,tissue uptake dose at 2 h,in vivo [2]; PET signal in lungs,1.39 ± 0.46 %ID
same,target-to-background (Matrigel-to-muscle) PET signal,"[3]; day 10, PET 1 h after i.v. injection",3.78 ± 2.11
same,target-to-background (Matrigel-to-muscle) PET signal,"[3]; day 13, PET 1 h after i.v. injection",4.86 ± 2.49
same,target-to-background (Matrigel-to-muscle) PET signal,"[3]; day 21, PET 1 h after i.v. injection",5.00 ± 3.04
same,"PET Matrigel-to-muscle ratio, blocking",APJ in Matrigel plug; [6],2.35 ± 0.62
same,"PET Matrigel-to-muscle ratio, non-blocked",APJ in Matrigel plug; i.v.,7.29 ± 3.14
same,"cell-to-background autoradiography signal ratio, non-blocked",APJ on T84 cells; 1.7 MBq/10 µL per well,1.40 ± 0.38
same,"cell-to-background autoradiography signal ratio, blocking",APJ on T84 cells; large excess of apelin-F13A added 10 min before tracer,0.50 ± 0.23
same,"PET tumor-to-muscle ratio, blocking",APJ in T84 tumors; [6],1.02 ± 0.31
same,"PET tumor-to-muscle ratio, non-blocked",APJ in T84 tumors; i.v.,7.93 ± 2.17
same,tissue uptake dose at 2 h,in vivo [4]; PET signal in bladder,88.3 ± 5 %ID
same,tissue uptake dose at 2 h,in vivo [4]; PET signal in brain,0.02 ± 0.001 %ID
same,tissue uptake dose at 2 h,in vivo [4]; PET signal in kidneys,1.04 ± 0.2 %ID
same,tissue uptake dose at 2 h,in vivo [4]; PET signal in liver,0.35 ± 0.03 %ID
same,tissue uptake dose at 2 h,in vivo [4]; PET signal in lungs,0.06 ± 0.02 %ID
same,Plasmatic half-life (t1/2),[5],13.31 min
[Ala13]-Apelin-13 [apelin-F13A],affinity for APJ,APJ,nanomolar affinity
